These results are taken from patent US20200080117A1 (UNIVERSIDAD POLIT CNICA DE MADRID, published 2020).

The test deals with T1, NifU (A. vinelandii NifU expressed in yeast strain SB33Y as SU9-NifU) (Azotobacter vinelandii, UniProt P05340 2-312).
T1 sequence: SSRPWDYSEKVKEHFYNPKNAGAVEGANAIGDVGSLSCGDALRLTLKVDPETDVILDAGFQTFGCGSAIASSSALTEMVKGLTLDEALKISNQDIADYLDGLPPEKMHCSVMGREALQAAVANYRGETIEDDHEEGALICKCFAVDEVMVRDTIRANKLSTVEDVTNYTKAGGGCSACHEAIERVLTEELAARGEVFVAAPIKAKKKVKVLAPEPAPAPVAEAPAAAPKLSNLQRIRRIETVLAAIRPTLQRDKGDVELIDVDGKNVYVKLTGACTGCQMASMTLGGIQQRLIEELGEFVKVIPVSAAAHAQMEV
The experiment in a line: co-purification on Strep-Tactin column from SB33Y extract, immunoblot.

B1: TS-NifB^USF (SU9-Twin-Strep-NifBMi purified from yeast strain SB33Y, co-expressed with NifU, NifS and FdxN-HA) (enzyme)
chain: not shown
notes: Same polypeptide as m1, purified from SB33Y; As isolated it carries about 6.1 Fe per monomer as [4Fe-4S] clusters and is active; The range 68-405 was derived from the printed N-terminus SSSAW; also called SU9-TS-NifBMi
For the molecule B1, the binding result was “no binding”.
